Assay results as given in IntAct's records for PubMed 25525273.

B1: Krev interaction trapped protein 1 (Homo sapiens), O00522 (parent)
chain: MGNPENIEDAYVAVIRPKNTASLNSREYRAKSYEILLHEVPIEGQKKKRKKVLLETKLQGNSEITQGILDYVVETTKPISPANQGIRGKRVVLMKKFPLDGEKMGREASLFIVPSVVKDNTKYTYTPGCPIFYCLQDIMRVCSESSTHFATLTARMLIALDKWLDERHAQSHFIPALFRPSPLERIKTNVINPAYATESGQTENSLHMGYSALEIKSKMLALEKADTCIYNPLFGSDLQYTNRVDKVVINPYFGLGAPDYSKIQIPKQEKWQRSMSSVTEDKERQWVDDFPLHRSACEGDSELLSRLLSERFSVNQLDSDHWAPIHYACWYGKVEATRILLEKGKCNPNLLNGQLSSPLHFAAGGGHAEIVQILLNHPETDRHITDQQGRSPLNICEENKQNNWEEAAKLLKEAINKPYEKVRIYRMDGSYRSVELKHGNNTTVQQIMEGMRLSQETQQYFTIWICSENLSLQLKPYHKPLQHVRDWPEILAELTNLDPQRETPQLFLRRDVRLPLEVEKQIEDPLAILILFDEARYNLLKGFYTAPDAKLITLASLLLQIVYGNYESKKHKQGFLNEENLKSIVPVTKLKSKAPHWTNRILHEYKNLSTSEGVSKEMHHLQRMFLQNCWEIPTYGAAFFTGQIFTKASPSNHKVIPVYVGVNIKGLHLLNMETKALLISLKYGCFMWQLGDTDTCFQIHSMENKMSFIVHTKQAGLVVKLLMKLNGQLMPTERNS

Variants of: B1
Details: with ccm2_human CCM2, Q9BSQ5
Sequence of ccm2_human CCM2, Q9BSQ5 (Q9BSQ5 whole entry): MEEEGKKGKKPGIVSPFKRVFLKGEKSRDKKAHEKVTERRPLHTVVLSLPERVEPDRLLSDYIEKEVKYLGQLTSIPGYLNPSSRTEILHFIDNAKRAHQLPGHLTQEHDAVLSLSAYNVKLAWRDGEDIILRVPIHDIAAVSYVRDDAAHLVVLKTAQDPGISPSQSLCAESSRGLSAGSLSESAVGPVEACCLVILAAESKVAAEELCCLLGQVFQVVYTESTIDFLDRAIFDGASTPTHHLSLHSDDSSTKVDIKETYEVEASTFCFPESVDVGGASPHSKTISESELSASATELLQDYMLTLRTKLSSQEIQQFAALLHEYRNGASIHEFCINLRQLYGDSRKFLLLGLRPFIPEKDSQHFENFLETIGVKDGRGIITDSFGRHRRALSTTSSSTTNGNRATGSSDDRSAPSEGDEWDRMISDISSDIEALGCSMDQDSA

| Variant | effect of a mutation on the interaction |
| --- | --- |
| V248D | disrupting interaction strength |
| Y252A;F253A | disrupting interaction strength |
| V244L | decreasing interaction strength |

Variants of: B1
Details: with ccm2_human CCM2, Q9BSQ5
Remark: another data set of the same source

| Variant | effect of a mutation on the interaction |
| --- | --- |
| F234A | with no effect |
| Y252A;F253A | with no effect |
| Y195A | with no effect |
| F234A;Y252A;F253A | decreasing interaction strength |
